Tests used:
[1] = substrate: CC(C)(COP(=O)(O)OP(=O)(O)OC[C@H]1O[C@@H](n2cnc3c(N)ncnc32)[C@H](O)[C@@H]1OP(=O)(O)O)[C@@H](O)C(=O)NCCC(=O)NCCSC(=O)/C=C/c1ccc(O)c(O)c1; assay: UPLC-DAD endpoint assay, Michaelis-Menten; format: biochemical, Echinacea purpurea; details: PBS pH 7.0, 30 °C
[2] = substrate: CC(C)(COP(=O)(O)OP(=O)(O)OC[C@H]1O[C@@H](n2cnc3c(N)ncnc32)[C@H](O)[C@@H]1OP(=O)(O)O)[C@@H](O)C(=O)NCCC(=O)NCCSC(=O)/C=C/c1ccc(O)cc1; assay: UPLC-DAD endpoint assay, Michaelis-Menten; format: biochemical, Echinacea purpurea; details: PBS pH 7.0, 30 °C
[3] = substrate: COc1cc(/C=C/C(=O)SCCNC(=O)CCNC(=O)[C@H](O)C(C)(C)COP(=O)(O)OP(=O)(O)OC[C@H]2O[C@@H](n3cnc4c(N)ncnc43)[C@H](O)[C@@H]2OP(=O)(O)O)ccc1O; assay: UPLC-DAD endpoint assay, Michaelis-Menten; format: biochemical, Echinacea purpurea; details: PBS pH 7.0, 30 °C
purified protein [4] = substrate: O=C(O)C(O)C(O)C(=O)O; assay: purified protein; details: 50 μM caffeoyl CoA, PBS pH 7.0, 30 °C, pH 7.0
[5] = substrate: O=C(O)C(O)C(O)C(=O)O; assay: purified protein, by the assay type; parameters: Michaelis-Menten kinetics of recombinant EpHTT, product quantified by UPLC-DAD; details: pH 7.0; 16.0 °C
purified protein [6] = substrate: O=C(/C=C/c1ccc(O)c(O)c1)O[C@@H]1O[C@H](CO)[C@@H](O)[C@H](O)[C@H]1O; assay: purified protein; format: biochemical, Echinacea purpurea; details: 200 μM caftaric acid as acyl acceptor, 10 mM Na2HPO4, pH 4.0, 30 °C
purified protein [7] = substrate: O=C(/C=C/c1ccc(O)c(O)c1)O[C@@H](C(=O)O)[C@@H](O)C(=O)O; assay: purified protein; format: biochemical, Echinacea purpurea; details: 200 μM chlorogenic acid as acyl donor, 10 mM Na2HPO4, pH 4.0, 30 °C
purified protein [8] = substrate: O=C(/C=C/c1ccc(O)c(O)c1)O[C@@H]1C[C@](O)(C(=O)O)C[C@@H](O)[C@H]1O; assay: purified protein; details: 200 μM caftaric acid as acyl acceptor, 10 mM Na2HPO4, pH 4.0, 30 °C, pH 4.0
[9] = substrate: O=C(O)[C@]1(O)C[C@@H](O)[C@@H](O)[C@H](O)C1; assay: UPLC-DAD endpoint assay, Michaelis-Menten; format: biochemical, Echinacea purpurea; details: 50 μM caffeoyl CoA, PBS pH 7.0, 30 °C

B1: EpHTT (Echinacea purpurea) (protein)
chain: MKVVVRESTVVRPAEESPPRKLWNSSLDLTNLNGHTLVVYFYRPNGASDFFNTKLMKDTLSRMLVAFYPFAGRFKYDQHGRVETDCQGQGALFLEAESDGLIDDFGDFLPTLEYLKLIPAIDYSKGIDSFPLMVFQVTFFKCGGVSLGVGMHHHLVDGMSGLHFTNTWADMTRGLDITLPPFIDRTLLRPRDPPRPVFEHIEYQSDPTPLKVSLDETKTSFSMFKLTRNQLALLKEKAKEEGNKISYTTFEMFSAHVWKCVCKARGLPDDVETKLYLPVDGRARLQPPLPPGYFGNVIFDAAVIATAGDIKSKPIWYAAGKIHDSLARMNNDYLRSAIDYLEQHNCKKPYVDYNTNLRINSWARLPIHDADFGWGRPIFMGRTGLPSVGRVYVLPSAMDDGSLSIILGLEAEEMKVFGNLLYAI
notes: full-length CDS, N-terminal 6xHis (pDEST17), E. coli BL21(DE3), Ni-NTA purified
Km ([1]; 0.5 mM tartaric acid): 34.760 ± 6.832 µM
kcat ([1]; 0.5 mM tartaric acid): 0.588 ± 0.064 s⁻¹
Km ([2]; 0.5 mM tartaric acid): 22.027 ± 3.818 µM
kcat ([2]; 0.5 mM tartaric acid): 0.007 ± 0.001 s⁻¹
Km ([3]; 0.5 mM tartaric acid): 48.010 ± 11.329 µM
kcat ([3]; 0.5 mM tartaric acid): 0.122 ± 0.011 s⁻¹
Km (purified protein [4]): 841.967 ± 35.474 µM
kcat (purified protein [4]): 0.685 ± 0.016 s⁻¹
Km [5]: 458.600 ± 80.431 µM
kcat [5]: 0.176 ± 0.052 s⁻¹
kcat/Km [5]: 390 ± 122 M⁻¹ s⁻¹

B2: EpCAS (Echinacea purpurea) (protein)
chain: ASTIVKNLPGFHGDLPCTIETGYIGVGADDEVQFFYYFVESERDPSRDPLIYYLTGGPGTTALYPFLFQIGPLSINYDNSTWEKLTLELNPYSWSKAANVLFVDLPAGTGFSYGTTYEATKSSDSISAQQGYEFLIKWLEENPRFLNNSLYIAGTSYMGIVVPVVTLEVYKGNERGDQPQLNVKGYAISSPLTDKFSDFNSRFEFAHRAALISDDIYKSAKNNCGGNYIYNAVENTECARSLQRFEECTSRINEANILDPLCDEDSQDPVCGEVGDKYLKYYGNDKEVQKALGVREGTIEEFVKTNQSIHYLINKEDQDCYSYDIFSTIIYHKSLVSRNCQALILSADHDFTFPYVGVEQWITSLNLPLESPWNPWFVNNQVAGYRLKYARNGYSLTYATVKGAGHSIALYKPRETWVILDEWLASNSYLSDS
notes: full-length cDNA, C-terminal 6xHis (pESC-His), S. cerevisiae BY4741, Ni-NTA purified; vacuolar targeting peptide Met1-His24
Km (purified protein [6]): 121.400 ± 12.163 µM
kcat (purified protein [6]): 1.09e-05 ± 8.7e-07 s⁻¹
Km (purified protein [7]): 53.910 ± 0.613 µM
kcat (purified protein [7]): 0.005 ± 0.00002 s⁻¹
Km (purified protein [8]): 83.910 ± 7.811 µM
kcat (purified protein [8]): 0.005 ± 0.0003 s⁻¹

B3: EpHQT (Echinacea purpurea) (protein)
chain: MNITITKSSLIPPSETLPGSETRLWTSNLDLVVGRIHILTVYFYRPNGSSNFFDPNAMKQALADVLVSFYPMAGRLGRDESGRVVINCNGEGALFVEAEADSCLDDFGEFTPSPELRSLTPAVDYSGDVSSYPLFFAQVTHFKCGGVSLGCGVFHTLSDGLSSLHFINTWSDVARGLSVAIPPFIDRTLLRAREPPTPTHDHVEYHPPPTMTMLNTIQKPGPLSKSSTTMLKLTLDQLNTLKAKTKTEGGPSYSTYEILAAHIWRCACKARGLPDDQLTKLYVATDGRSRLSPHLPRGYLGNVVFTATPVATSGALTSDSLQNAAKLIHTTLTQMDNEYLRSAIDYLEIQPDLSALIRGPSYFASPNLNINAWSRLPVHDADFGWGRPVFMGPAIILYEGTVYVLPSPNNDRSVSLAVCLDAKEQPLFEKYLYEF
notes: as for B1
Km ([1]; 1 mM quinic acid): 7.231 ± 1.577 µM
kcat ([1]; 1 mM quinic acid): 0.111 ± 0.005 s⁻¹
Km ([2]; 1 mM quinic acid): 70.547 ± 43.952 µM
kcat ([2]; 1 mM quinic acid): 0.060 ± 0.036 s⁻¹
Km [9]: 576.167 ± 72.176 µM
kcat [9]: 0.157 ± 0.007 s⁻¹
Km ([3]; 1 mM quinic acid): 38.623 ± 14.588 µM
kcat ([3]; 1 mM quinic acid): 0.0007 ± 0.00009 s⁻¹

From paper PMC7946891, “Versatility in acyltransferase activity completes chicoric acid biosynthesis in purple coneflower” (Nature Communications, 2021)
